{"source": "patent US20110281938", "proteins": {"B1": {"name": "tissue factor:FVIIa complex (TF:FVIIa) (protein)", "chain 1": "SGTTNTVAAYNLTWKSTNFKTILEWEPKPVNQVYTVQISTKSGDWKSKCFYTTDTECDLTDEIVKDVKQTYLARVFSYPAGNVESTGSAGEPLYENSPEFTPYLETNLGQPTIQSFEQVGTKVNVTVEDERTLVRRNNTFLSLRDVFGKDLIYTLYYWKSSSSGKKTAKTNTNEFLIDVDKGENYCFSVQAVIPSRTVNRKSTDSPVECMGQEKGEFREIFYIIGAVVFVVIILVIILAISLHKCRKAGVGQSWKENSPLNVS", "chain 2": "ANAFLEELRPGSLERECKEEQCSFEEAREIFKDAERTKLFWISYSDGDQCASSPCQNGGSCKDQLQSYICFCLPAFEGRNCETHKDDQLICVNENGGCEQYCSDHTGTKRSCRCHEGYSLLADGVSCTPTVEYPCGKIPILEKRNASKPQGRIVGGKVCPKGECPWQVLLLVNGAQLCGGTLINTIWVVSAAHCFDKIKNWRNLIAVLGEHDLSEHDGDEQSRRVAQVIIPSTYVPGTTNHDIALLRLHQPVVLTDHVVPLCLPERTFSERTLAFVRFSLVSGWGQLLDRGATALELMVLNVPRLMTQDCLQQSRKVGDSPNITEYMFCAGYSDGSKDSCKGDSGGPHATHYRGTWYLTGIVSWGQGCATVGHFGVYTRVSQYIEWLQKLMRSEPRPGVLLRAPFP"}, "B2": {"name": "Factor Xa (FXa) (protein)", "chain 1": "ANSFLEEMKKGHLERECMEETCSYEEAREVFEDSDKTNEFWNKYKDGDQCETSPCQNQGKCKDGLGEYTCTCLEGFEGKNCELFTRKLCSLDNGDCDQFCHEEQNSVVCSCARGYTLADNGKACIPTGPYPCGKQTLER", "chain 2": "IVGGQECKDGECPWQALLINEENEGFCGGTILSEFYILTAAHCLYQAKRFKVRVGDRNTEQEEGGEAVHEVEVVIKHNRFTKETYDFDIAVLRLKTPITFRMNVAPACLPERDWAESTLMTQKTGIVSGFGRTHEKGRQSTRLKMLEVPYVDRNSCKLSSSFIITQNMFCAGYDTKQEDACQGDSGGPHVTRFKDTYFVTGIVSWGEGCARKGKYGIYTKVTAFLKWIDRSMKTRGLPKAKSHAPEVITSSPLK"}, "B3": {"name": "extrinsic Xase: re-lipidated recombinant human tissue factor (Innovin) with factor VIIa (Enzyme Research Laboratories) (protein)", "chain 1": "SGTTNTVAAYNLTWKSTNFKTILEWEPKPVNQVYTVQISTKSGDWKSKCFYTTDTECDLTDEIVKDVKQTYLARVFSYPAGNVESTGSAGEPLYENSPEFTPYLETNLGQPTIQSFEQVGTKVNVTVEDERTLVRRNNTFLSLRDVFGKDLIYTLYYWKSSSSGKKTAKTNTNEFLIDVDKGENYCFSVQAVIPSRTVNRKSTDSPVECMGQEKGEFREIFYIIGAVVFVVIILVIILAISLHKCRKAGVGQSWKENSPLNVS", "chain 2": "ANAFLEELRPGSLERECKEEQCSFEEAREIFKDAERTKLFWISYSDGDQCASSPCQNGGSCKDQLQSYICFCLPAFEGRNCETHKDDQLICVNENGGCEQYCSDHTGTKRSCRCHEGYSLLADGVSCTPTVEYPCGKIPILEKRNASKPQGRIVGGKVCPKGECPWQVLLLVNGAQLCGGTLINTIWVVSAAHCFDKIKNWRNLIAVLGEHDLSEHDGDEQSRRVAQVIIPSTYVPGTTNHDIALLRLHQPVVLTDHVVPLCLPERTFSERTLAFVRFSLVSGWGQLLDRGATALELMVLNVPRLMTQDCLQQSRKVGDSPNITEYMFCAGYSDGSKDSCKGDSGGPHATHYRGTWYLTGIVSWGQGCATVGHFGVYTRVSQYIEWLQKLMRSEPRPGVLLRAPFP"}}, "key": {"[1]": {"biological_target": "TFPI (source and species not stated; Examples 8, 12 and 45), P10646", "sequence (P10646 whole entry, looked up)": "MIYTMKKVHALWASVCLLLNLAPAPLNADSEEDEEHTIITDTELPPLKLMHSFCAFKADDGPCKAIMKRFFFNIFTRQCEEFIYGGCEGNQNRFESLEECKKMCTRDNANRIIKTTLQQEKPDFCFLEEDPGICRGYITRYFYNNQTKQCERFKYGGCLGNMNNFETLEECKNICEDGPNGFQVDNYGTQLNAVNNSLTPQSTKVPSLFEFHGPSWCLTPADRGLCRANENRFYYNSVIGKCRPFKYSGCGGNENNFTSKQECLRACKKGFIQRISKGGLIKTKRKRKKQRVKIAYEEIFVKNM"}, "[2]": {"biological_target": "Recombinant human TFPI purified from a cell line from Novo Nordisk"}}}
{"protein": "B1", "values": [{"measurement": "TF:FVIIa activity, hydrolysis of fluorogenic substrate SN-17c, 8 nM TFPI", "setting": "[1]", "value": "TFPI inhibited approximately 50% of TF:FVIIa activity under these conditions"}]}
{"protein": "B2", "values": [{"measurement": "FXa cleavage of chromogenic substrate S-2765, substrate added last, 1 nM FXa", "setting": "[1]", "value": "In the presence of ≧8 nM TFPI, inhibition is nearly complete under these conditions and little product is formed"}]}
{"protein": "B3", "values": [{"measurement": "FXa generation by the extrinsic Xase (chromogenic FXa substrate), 2 nM TFPI", "setting": "[2]", "value": "curve #6 shows that TFPI shuts down Xa generation in the absence of ARC19499"}]}
